Source: the nanobody polyreactivity screen of Harvey et al. (2022)

Experiment: yeast display, Sf9 membrane polyspecificity reagent, FACS + sequencing; frameworks hold sequencing errors
Outline: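 A nanobody's polyreactivity label depends on the gate it was sorted from. Yeast display cells were stained with 10% biotinylated, detergent-solubilized Sf9 membrane reagent for 1 hour at 4 °C, enriched on streptavidin microbeads and sorted by FACS. The low and high (top ~1%) gates were set on anti-HA fluorescence for expression and streptavidin fluorescence for reagent binding.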

Sequence | polyreactivity (PSR sort gate)
QVQLVESGVGLVKAGGSLRLSCAASGFTIRPYAMGWYRQAPGKERELVAAITSGDSTNYADSVKGRFTISRDNAKNTVYLQMNSLKPEDTAVYYCAVDGGEFTSYGYWGQGTQVTVSS | low polyreactivity
QVQLVESGGGLVQAGGSLRLSCAASGIIFRNYAMGWYRQAPGKERELVATITGDGGSTYYADSVKGRFTISRDNAKNTVYLQMNSLKPEDTAVDYCAADRPYAGRYWKGYHSALYDYWGQGTQVTVSS | low polyreactivity
QVQLVESGGGLVQAGGSLRLSCAASGSTFGRYAMGWYRQAPGKERELVAAINSRGGRKYYADSVKGRFTISRDNAKNTVYLQMNSLIPEDTAVYYCAAPTGPNGYYSDRGDSWGQGTQLTVSS | low polyreactivity
QDQLVESGGGLVQAGGSLRLSCAASGRTFLRNAMGWYRQAPGKERELVAAISRSGGSTYYADSVKGRVTISRDNAKNTVYLQMNSLKPEDTAVYYCAADDYGGYYYWGQGTQVTVSS | high polyreactivity
QVQLVESGGGLVQAGGSLRLSCAASGRIFVRNPMGWYRQAPGKERELVADITNGGSTNYADSVKGRFTISRDNAKNTVYLQMNSLKPEDTAVYYCAATYPYSWVYSGYYYWGQGTQVTVSS | low polyreactivity
QVQLVESVGGLVQAGGRLRLSSAASGFTFAFHAMGSYRQAPGKERELVAAISCSGVSTYYADSVKWRFTLSRDNEKNTDYLQMNSLKPEDTAVKYCAVGAVASSHRAGGKRHEYWGQGTQVTLSS | low polyreactivity
QVQLVESGGGLVQAGGSLRLSCAASGSIFPDNTMGWYRQSPGKDRELVGAIDGRGGTTYYADSVKGSFTISRDNAKNTVYLQMNSLKPEDTAVYYCARDIGHSASYDYWGQGTQVTVSS | low polyreactivity
QVQLVESGGGLVQAGGSLRLSCAASGSTFTPYAMGCYRQAPAKERELVAAINGGGTRTYYADSVKGRFTISRDHAKNTVFLQMNSLKPVDTAVYYCAARTSTSRSYPYNYWGQGTQVTGSS | high polyreactivity
QVQLVESGGGLVQAGGSLRLSCAASGFTFLDSYAMGWYRQAPGKERELVAGITWSVGTTYYADSVKGRFTISRDNAKNTVYLHMNSLKPEDTAVYYCNAVIDVHDPEYDYWGQGTQVTVSS | low polyreactivity
QVQLVESGGGIVQAGGSLRLSCAASGGTFYYYAMGWYRQAPGKERELVATISYSGASTYYADSVKGRFTISRDNAKNTVYLQMNSLKPEDTAVYYCKARPYNHRYRAWMDYWGQGTQVTVSS | high polyreactivity
QVQLVESGGGLVQAGGILRLSCAASGRILTTNAMGWYRQAPGKERELVAAITRSGGRTYYADSVKGRFTISRDNAKNTVYFQMNSLKPEDTAVYYCNAVTTRLSLYDYWGQGTQVTVSS | high polyreactivity
QVQLVESGGGLVQAGGSLSLSSAATGNIFRNNAMGWYRQAPGKERELGAAISYSGGRTFYADSVKGRFTISRDNAKNTVYLQMNSLKPEDTAVYYCAVTYGRNADDYEYWGQGTQVTVSS | high polyreactivity
QVQLVESGGGLVQAGGTLRLSCAASGRTFGFYAMGWYRQAPGKERELVAVITRGGYTSYADSVKGRFTISRDNAKNTVYLQMNSLKPEDTAVYYCAAGWHYWDHRYDYWGQGTQVTVSS | high polyreactivity
QVQLVESGGGLVQAGGSLRLSCAASGSTFYTHAMGWYRQAPGKERELVAAISASVGSTYYADSVKGRFTISRDNAKNTVYLQMNSLKPEDTAVYYCAADVWASRRYDYWGQGTQVTVSS | low polyreactivity
QVQLVESGGGLVQAGGSLRLTCAASGYTFAGNAMGWYRQAPGKERELVAALSRSGGRTYYADSVKGRFTISRDNAKTTVYLQMNSLKPEDTAVYYCAASYRYTEYVSTWGFGYWGQGTQVTVSS | high polyreactivity
QVQLVESGGGLVQAGGSLRLSSAASGYIFDRYTMGWYRQAPGKERELVASISRRGGSTYYADSVKGRFTISRDNAKNTVYLQMNSLKPEDTAVYYCAAPNALGYLFQGFDYWGLGTQVTVSS | high polyreactivity
QVQLVESGGGLVQAGGSLRLSCAASGRTFGKNAMGWYRQAPGKERELVAAISTSGGRTYYADSVMGRFTISRDNAKNTVYLQMNSLIPEDPAVYYCAAVLYDTRPVYGCESWGQGTQVTVSS | high polyreactivity
QVQLVESGGCLVQAGGSLRLSCAASGSTFTTNAMGWYIQAPGKERELVAAISWSGTTTYYADSVKGRFTISRDNAKNTGYLQMNSLKPEDTAVYYCAAQVVSGTVAYLDFGYWGQGTQVTVSS | low polyreactivity
QVQLVQSGGGLVQAGGSLRLICAASGRTFYGNAMGWYRQAPGKERELVAAISRSGGRTYYADSVKGRFTISRDNAKNTVYLQMISLKTEDTAVYYCAKDYYYPSHTYGYWGQGTQVTVST | high polyreactivity
QVQLVESGGGLVQAGGSLRLSCAASGSTLLANAMGWYRQAPGKERELVAASTYYADSVKGRFTISRDNAKNTVYLQMNSLKPEDTAVYYCAADTVRGGPDGIEYNYWGQGTQVTVSS | low polyreactivity
QVQLVESGGGLVQAGGSLRLSCAASGLIVWYYAMGWYRQAPGKERELVATITSRGGSTYYADSVKGRFTISRDNAKNTVYLQMNSLKPEDTAVYYCARENPGDSYYDYWGQATQVTVSS | low polyreactivity
QVQLVESGGGLVQAGGSLRLSCAASGRIFDSYAMGWYRQAPGKERELVATISWDSASTYYADSVKGRFTISRDYAKNTVYLQMNSLKPEDTAVYYCAAGGSSSWAFNYWGQGTQVTVSS | low polyreactivity

Sequence | polyreactivity (PSR sort gate)
QVQLVESGGGLVQAGGSLRLSCAASGSTSPYYDRGWSRQAPGKERELVAAITSGGSTNYADSVKGRFTISRDYAKNSVYLQMNSLKPEDTAVYYCATDWSDDLWTWYYYWGQGTQVTVSS | high polyreactivity
QVQLVESVVGLVQAGGSLRLSCAASGFIFVVYAMGWYRQAPGKERELVAAITNGGITYYADSVKGRFTISRDNAKNTVYLQMNSLKPEDTAVYYCNAQYTDYDGYVGYYYWGQGTQVTVSS | low polyreactivity
QVQLVETGGGLVQAGGSLRLSSAGSGSISYAYAMGWYRQARGKEREFVAAITDSGGSTYYADSVKGRFTISRDNAKNTVYSQMNSLKPEDTAVYYCAAGGPWWSGYYYWGQGTQVTVSS | low polyreactivity
QVQLVESGGGLVPARGSLRLSCAASGRIFRYYAMGWYRQAPGKERELVAAISGNGGRTSYADSVKGRFTISRDNAKITVSLQMTSLKPEDTAVYYCNAASVNGCRDFDYWGQGTQVTVSS | high polyreactivity
QVQLVESGGGLVQAGGSLRLSCAASGRTFGSNAMGWYRQAPGKERELVAVITTSGGSTYYADSVKGRFTISRDNAKNTVYLQMNSLKPEDTAVYYCNKVGWYHNYYYWGQGTQVTVSS | high polyreactivity
QVQLVESGGGLVQAGGSLRLSCAASGSTFYTYVMGGYRQAPGKERELVAAITRSGGITYYADSVKGRFTISRDNAKYTVYLQMNSLKPEDTAVYYCAKDDQTASGFDYWGQGTQVTVSS | low polyreactivity
QVQLVESGGGLVQAGGSLRLSCAASGSTFPGYAMGWYRQAPGKERELVAAGGSTYYADSVKGRFTISRDNAKNTVYLQMNSLKPEDTAVYYCAATWGSVQKGTYYYWGQGTQVTVSS | low polyreactivity
QVQLVESGGGLVQAGGSLRLSSAASGSIFRSNAMGWYRQAHGKERELVAAITSGTRTYYADSVKGRFTISRDNAKNTVYLQMNSLKPEDTAVFYCATKGSKYVRGYWGQGTQVTVSS | high polyreactivity
QVQLVESGGGLVQAGGSLRLSCAASGFMFTRYAMGSYRQAPGKERELVAAISWIGTSTYYADSVKGRCTISRDNAKNTVFLQMNSLTPEDTAVYYCNALLYSTGRPGFYLGYDYWGQGTQVTVSS | high polyreactivity
QVQLVESGGGLVQAGGSLRLSCAASGIIFFYNAMGWYRQAPGKERELVAAIRRGGRTNYADSVKGRFTISRDNAKNTVYLQMNSLKPEDTAVYYCNKDFYPGDYWGQGTQVTVSS | low polyreactivity
QLQIVESGGGLVQAGGSLRISCAASVFTFCKYAMGWYRPAPGKERELVAAISVSGGRTYSADSVKGRFTISRDNAKNTVYLQMNSLKPEDTEVYYCNATQWRPYVGGEYWGQGTQVTVSS | high polyreactivity
QVQLVESGGGLVQAGGSLRLSCAASGRIFQSNAMGWYRQAPGKERELVAAISYSGGSTYYADSVKGRFTISRDNAKNTVYLQMNSLKPEDTAVYYCAADIFSPAFDYWGQGTQVTVSS | low polyreactivity
QVQLVESGGGLVQTGGSLRLSCAASGLTLYVYAMGWYRQAPGKERELVASITSGGSTNYADSVKGRFTISRDNAKNTVYLQMNSLKPEDTAVYYCAAETDTVYDWIAPYVTYDYWGQGTQVTVSS | low polyreactivity
QVQLEESGGGLVQAGGSLRLCCAASGRTFYYAMGWYRQATGKDRYADSVKGRFTISRDNAKNTVYLQMNSLKPDDTSVYYCAAKVTEPPSLDDSDYWGQGTQVTVSS | low polyreactivity
QVQLVESGGGLVQAGGSLRLSCAASGFILRYYVMGWYRQAPGKERELVAAISSSGGRTYYADSVKGRFTISRDNAKNTVYLQMNSLKPEDTGVYYCATSTYAYRRKSYFYTRPRFGYWGQGYQVTVSS | high polyreactivity
QVQLLESGGGLVQAGGSLRLSCMASGSILADRISWYRQAPRIEHELVATLYDGGITYYADSMKGRFTMSRDNAKNTVYLQMNSLRPEDTAVYYCGASFEGYRYHVYCGQGTQVTVSS | low polyreactivity
QVQLVESGGGLVQAGASLRLSCAASGSTQGWYAMGRYRQAPGKERELVAAISWSGSSTYYADSVKGRFTISRDTAKNTVYLQMNSLKPEDTAVYYCATTSSEVGELRICDYWGQGTQVTVSS | low polyreactivity
QVQLVESGGGLVQAGGSLRLSCAASGSIFARYAMGWYRQAPGKERELVATITRGGSTNYADSVKGRFTISRDNAKNTVYLQMNSLKPEDTAVYYCARTSYGRLDYWGQGTQVTVSS | low polyreactivity
QVQLVESGGGLVQAGGSLRLSCAASGRTFGQNAMGWYRQAPGKERELVASIRSGGITDYADSVKGRFTISRDNAKNTVYLQMNSLKPEDTAVYYCNDEGVWWSTRYDSWGQGTQVTVSS | low polyreactivity
QVQLVESGGGLVQAGGSLRLSCAASGSIFGKYTMGWYRQAPGKERELVAAITSGGSTNYADSVKGRFTISRDNAKNSVYLQMNSLKPEDTSVYYCAAPGTWIPSSTECGDGYDYWGQGTQVTVSS | low polyreactivity
QDQLVESGGGLVQAGGSLRLSCAASGSIFVSYTMGWYRQAPGKERELVAAITRSGGSTYYADSVKGRFTISRDNAKNTVYLQLNSLKPEDTAVYYCNATPANKYYRSTRGYAYNYWGQGTQVTVSS | low polyreactivity
